pKi: −log10 of the molar value. Ends that are not written are not given here.

The target in one assay is T1, PKA (Homo sapiens, UniProt P17612).
T1 construct: pure catalytic subunit of PKA from rabbit muscle; from tissue
Briefly: Inhibition of vitronectin phosphorylation by PKA in the presence of competing peptide. The format is biochemical. The following applies: for inhibition of the phosphorylation of vitronectin by PKA (in words): competitive. An excerpt:
Peptides containing the sequence Arg-Arg-Pro-X-Arg (X=Ser, Thr, Ala, Cys, Tyr) inhibit the phosphorylation of vitronectin by PKA.
FIG. 5 Inhibition of vitronectin phosphorylation by PKA in the presence of the indicated concentrations of a peptide identical in sequence to the site phosphorylated in vitronectin.

Assay [1] relates to vitronectin phosphorylation by PKA. The assay can be described thus: Phosphorylation of vitronectin at various pH in the presence or absence of heparin. It is filed as biochemical. The following applies: 3-fold molar excess of heparin over vitronectin (2.7 μM); FIG. 6. The method, then:
The phosphorylation of vitronectin (p75 and mainly the p65 form) is affected by pH and by the presence of heparin in the reaction mixture (FIG. 6).
FIG. 6 Vitronectin (2.7 μM was incubated for 2 h at 22° C. with C (1 μg/ml) in the presence of Mg(CH3 COO)2 (10 mM), [γ^32 ]ATP 50 μM, 0.5 Ci/mmol), (50 Mes at the indicated pH), and a 3-fold molar excess of heparin over vitronectin (where indicated). The reaction was terminated by boiling in Laemli's sample buffer and the extent of phosphorylation was analyzed by polyacrylamide gel electrophoresis and autoradiography.

Consider “-Arg-Arg-Pro-Ser-Arg- (RRPSR; printed: Arg-Arg-Pro-Ser-Arg-)”, for which the “inhibition of the phosphorylation of vitronectin by PKA (in words)” value with PKA is “competitively inhibit”.
Consider SRRPSRAT, for which, in the assay with PKA (FIG. 5, peptide competes as alternative substrate, read-out: Ki concentration for inhibition of the phosphorylation of vitronectin by PKA), the pKi was 4.52. Besides, in the assay with PKA, the “inhibition of the phosphorylation of vitronectin by PKA (in words)” value is recorded as “compete with (inhibit)”.
As for heparin, the “effect on the amount of phosphorylation of vitronectin” value in assay [1] is reported as “increase”.

The values are drawn from patent US5215888A, “Kit for assaying the cellular integrity of blood platelets” (Yeda Research and Development Co. Ltd., priority 1988, dated 1993).
